These results are taken from patent US6541002 (THOMAS JEFFERSON UNIVERSITY, dated 2003).

This assay deals with T1, Vpr-Gal4DB chimeric protein (HIV-1, UniProt P04386 1-147; P12520 1-96).
T1 construct: also called Vpr-Gal4BD
Description: yeast two-hybrid, growth on histidine-deficient medium.

B1: wild type Gal4AD (other)
chain: ANFNQSGNIADSSLSFTFTNSSNGPNLITTQTNSQALSQPIASSNVHDNFMNNEITASKIDDGNNSKPLSPGWTDQTAYNAFGITTGMFNTTTMDDVYNYLFDDEDTPPNPKKE
For the molecule B1, the binding result is reported as “no binding”.
